Measurements: patent US10543282B2, “Targeted peptide conjugates” (Marker Gene Technologies, Inc., priority 2014, dated 2020)
Non-standard residues stand in square brackets, D forms with d. Residues, ends and D or L forms follow the SMILES beside them. ξ: configuration not given here. *: point of attachment. X2 = Cn1cc(C2=C(c3ccc(NC(=O)CCCN4C(=O)CC(*)C4=O)cc3)C(=O)NC2=O)c2ccccc21; X1 = O=C(CCCN1C(=O)CC(*)C1=O)Nc1c(Br)cc(Br)cc1CN[C@H]1CC[C@H](O)CC1; ξC = NC(CS)C(=O)O; ξA = CC(N)C(=O)O

Experiments:
[1] = tested on: lysosomal GCase in immortalized B-Lymphoblast cells derived from a Gaucher I patient (GM10870); experiment: Lysosomal GCase activity by flow cytometry with LysoLive fluorogenic GCase substrate; type: cell-based, human; details: 48 hours; for lysosomal GCase activity compared to native drug SB216763: 1.0-5.0 uM, FIG. 14; for lysosomal GCase activity, Ambroxol and its targeted derivative: multiple concentrations, FIG. 15
Method: Immortalized B-Lymphoblast cells derived from a Gaucher I patient (GM10870, CCR) were incubated overnight in a CO2 incubator at 37° C./5% CO2. Equal numbers of cells (50,000 cells/well) were transferred to individual wells of 96-well tissue culture plates and treated with the native drug NSC 95397 or the organelle targeted NSC 95397 derivatives (M2770, M2771) at multiple concentrations (0.5-10 uM) and incubated at 37° C./5% CO2 for 48 hours. A lysosomal-targeted fluorogenic GCase substrate (MarkerGene™ LysoLive™ Lysosomal β-Glucosidase Assay Kit, Product M2775) was then added to the wells according to the manufacturer's instructions to a final concentration of 5 uM and cells were incubated a further 16 hours. DRAQ7 (dead-cell stain) was then added to the cells to a final concentration of 3 uM and cells immediately analyzed using a BD Accuri C6 flow cytometer, capturing 10000 live cell events and the median fluorescence of the stained cell populations graphed as shown in FIG. 13.
Immortalized B-Lymphoblast cells derived from a Gaucher I patient (GM10870, CCR) were incubated overnight in a CO2 incubator at 37° C./5% CO2. Equal numbers of cells (50,000 cells/well) were transferred to individual wells of 96-well tissue culture plates and treated with native drug SB216763 or the organelle targeted SB216763 derivatives (M2747, M2748) at multiple concentrations (1.0-5.0 uM) and incubated at 37° C./5% CO2 for 48 hours. A lysosomal-targeted fluorogenic GCase substrate (MarkerGene™ LysoLive™ Lysosomal β-Glucosidase Assay Kit, Product M2775) was then added to the wells according to the manufacturer's instructions to a final concentration of 5 uM and cells were incubated a further 16 hours. DRAQ7 (dead-cell stain) was then added to the cells to a final concentration of 3 uM and all cell wells immediately analyzed using a BD Accuri C6 flow cytometer, capturing 10000 live cell events and the median fluorescence of the stained cell populations graphed as shown in FIG. 14.
Immortalized B-lymphoblast cells derived from a Gaucher I patient leukocytes (GM10870, CCR) were incubated overnight in a CO2 incubator at 37° C./5% CO2. Equal numbers of cells (50,000 cells/well) were transferred to individual wells of 96-well tissue culture plates and treated with the native drug Ambroxol or the organelle-targeted Ambroxol derivative (M2781) at the multiple concentrations shown and incubated at 37° C./5% CO2 for 48 hours. Following drug treatment, a lysosomal-targeted fluorogenic GCase substrate (MarkerGene™ LysoLive™ Lysosomal β-Glucosidase Assay Kit, Product M2775) was then added to the wells according to the manufacturer's instructions to a final concentration of 5 uM and cells were incubated a further 16 hours. DRAQ7 (dead-cell stain) was then added to the cells to a final concentration of 3 uM and cells immediately analyzed using a BD Accuri C6 flow cytometer, capturing 10000 live cell events and the median fluorescence of the stained cell populations graphed as shown in FIG. 15.

[2] = tested on: Glc-Cer and allied glycolipids in Gaucher patient cells; experiment: TLC analysis of the clearance of excess glycolipids after TPC treatment; type: cell-based, human; details: 10 uM final concentration, 3 days, FIG. 9
Method: A series of targeted pharmacological chaperone derivatives were compared for their abilities to affect glycolipid biosynthesis by 1D-TLC.
Primary Human Fibroblasts from Gaucher I (F0361999) patients were obtained from Istituto Giannina Gaslini (Genova, Italy). Primary Human Fibroblasts from a healthy donor (AG06173) and Gaucher I (GM00372A) patients were obtained from the Coriell Institute for Medical Research (Camden, N.J.). Cells were cultured in Minimum Essential Medium Eagle supplemented with 10% FCS.
Immortalized B-lymphocytes from healthy donor (GM14643), Gaucher I (GM10870, GM10874), and Gaucher II (GM08752) patients were obtained from the Coriell Institute for Medical Research.
Cell labeling solutions were prepared by diluting substrate stock solutions in the appropriate medium for the cell line (see above) without serum. TPC treatment solutions were prepared by diluting stock solutions in complete media appropriate for the cell line. Cells were treated with either the targeted pharmacological chaperones (10 uM final concentration), miglustat (10 uM) or no drug (control) for 3 days prior to all analyses. For lipid analyses cells were counted on a TC-10 Automated Cell Counter (Bio-Rad, Hercules, Calif.) harvested by centrifugation (800×g, 5 min.) and subjected to one PBS wash (1 mL per sample) and centrifugation as above. […]

Compound	lysosomal GCase activity compared to native drug SB216763 [1]	lysosomal GCase activity, Ambroxol and its targeted derivative [1]	other results
CC(=O)NC(CSC1CC(=O)N(CCCC(=O)Nc2ccc(C3=C(c4cn(C)c5ccccc45)C(=O)NC3=O)cc2)C1=O)C(=O)NC(Cc1ccccc1)C(=O)NC(Cc1ccccc1)C(=O)NC(CCCCN)C(=O)NC(CC(=O)O)C(=O)NC(CCC(=O)O)C(=O)NC(CC(C)C)C(=O)O (stereo not drawn) [M2747] (Ac-C(X2)FFKDEL-OH; configuration not given here)	increased lysosomal GCase activity in lysosomes compared to the native drug	–	–
CC(=O)NC(CSC1CC(=O)N(CCCC(=O)Nc2c(Br)cc(Br)cc2CN[C@H]2CC[C@H](O)CC2)C1=O)C(=O)NCC(=O)NCC(=O)NCC(=O)NCC(=O)NCC(=O)NC(C)C(=O)O (stereo partly drawn) [M2781] (Ac-[ξC](X1)GGGGG[ξA]-OH)	–	increased lysosomal GCase activity	–
Nc1c(Br)cc(Br)cc1CNC1CCC(O)CC1 (stereo not drawn) [Ambroxol, 4-(((2-Amino-3,5-dibromophenyl)methyl)amino)cyclohexanol, reference compound]	–	slightly inhibitory toward lysosomal GCase activity	–
CC(=O)NC(CSC1CC(=O)N(CCCC(=O)Nc2ccc(C3=C(c4cn(C)c5ccccc45)C(=O)NC3=O)cc2)C1=O)C(=O)NCC(=O)NCC(=O)NCC(=O)NCC(=O)NCC(=O)NC(C)C(=O)O (stereo not drawn) [M2749] (Ac-C(X2)GGGGGA-OH; configuration not given here)	equivalent or reduced lysosomal staining/drug efficacy than native drug	–	–
CCCCN1C[C@H](O)[C@@H](O)[C@H](O)[C@H]1CO [miglustat, N-butyl-deoxynojirimycin]	–	–	effect on glycolipid biosynthesis / clearance of excess glycolipids (Glc-Cer and allied glycolipids), 1D-TLC [2]: moderate effect
CC(C)CC(NC(=O)C(CCCNC(=N)N)NC(=O)C(CCC(N)=O)NC(=O)C(Cc1ccc(O)cc1)NC(=O)C(CC(=O)O)NC(=O)C(CO)NC(=O)C(C)NC(=O)CN)C(=O)NCC(=O)NC(CSC1CC(=O)N(CCCC(=O)Nc2ccc(C3=C(c4cn(C)c5ccccc45)C(=O)NC3=O)cc2)C1=O)C(=O)O (stereo not drawn) [M2748] (H-GASDYQRLGC(X2)-OH; configuration not given here)	increased lysosomal GCase activity in lysosomes compared to the native drug	–	–
